Source: the supplement of paper PMC12042874
± gives the uncertainty stated by the source.

Test: amyloid nucleation score (Sup35N fusion, yeast selection) (log enrichment); library NNK2; higher = more nucleation; inactive = no reads after selection
Method in brief: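 Plasmid inserts were Illumina-sequenced at input and output from psi-negative yeast expressing Sup35N fused to peptides of 20 random codons. The yeast were induced with 100 μM copper sulfate for 24 hours and grown 7 days at 30°C on medium lacking adenine and uracil, and sequences with under 100 input reads were excluded. Nucleation score is the DiMSum log enrichment of output over input reads, centred on the mode score of non-aggregating sequences.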

Substance | amyloid nucleation score
DFSWNGGNFTFVFSKCGL | 2 ± 0.22
DFVDGVPL | 0.415 ± 0.8
DFYNRASLSYTSDVASGSPC | inactive
DGALNTFIDYGLSTAIKKIN | inactive
DGGMR | 0.322 ± 0.5
DGGVYTNINIFGCLVGFGGW | 8.006 ± 0.026
DGVFRCKKRSSNFSDKSVCM | 0.641 ± 0.74
DGVSMFWMPHAKRALLYGSY | 0.063 ± 1.1
DIFIGNSVCGVYRMVNMYSY | inactive
DIHQFGCTHIGCVIGYCCRV | 8.504 ± 0.031
DISCCLYRDTPVWERKDYVA | -0.506 ± 1
DIVANDKMMIIRVIMGTWCH | 0.927 ± 0.45
DKFMLVSCVYSDNLLVIYSG | inactive
DKWAFVRITRQEPPASIRMD | -0.939 ± 0.76
DLFLRYY | inactive
DLITLMKSAIPQPNMRLNSL | 0.105 ± 0.57
DLKVWAWKLILFGIMDLGGH | 3.89 ± 0.048
DLQIFTLLFTR | inactive
DLQSRDYPMADIVHIGIQRH | -0.754 ± 0.34
DLRHASVVVNRWILCLLGHI | 0.106 ± 1
DLTGGVRLRRWGWTSCSGNG | 0.404 ± 0.46
DLVVELGESQQPWPLVRSRP | 0.6 ± 0.64
DLWGVI | 8.81 ± 0.026

Substance | amyloid nucleation score
DMERLAGYLQVRSKGMMRHT | 0.155 ± 0.42
DMSNQFYELVAMILMNST | -0.823 ± 0.32
DNDYIYRYPWP | -0.288 ± 1.1
DNKYGFMIVIYTYSAGDAEE | 2.62 ± 0.061
DNSIRTLEILKSGNIVRGPR | inactive
DPGSRDMIG | 0.043 ± 1
DPKHATYAKQRSGMYRYGHW | 0.691 ± 0.43
DPKVVMLVMTDMLNFG | 5.71 ± 0.06
DQFRHLVTGSNNTIIKYSGV | inactive
DQLWRIRYWLLTDVGRNRIF | 0.343 ± 0.38
DRCMFNYVIEVHVYSCVRFW | 4.67 ± 0.079
DRFQMGCLWGNNEYLLSAMA | -1.97 ± 0.75
DRHRFIHFYAQGERKLSRTM | -0.358 ± 0.79
DRIGIRYWG | 1.34 ± 0.14
DRLLDLIVWGVFWQLGMRFL | inactive
DRLMLALGKGHGFEIGGPVL | 1.37 ± 0.39
DRNPSGNSERPHVMPHPSVD | -0.146 ± 0.32
DRRPNCIFLDGSYRRDV | 0.034 ± 1.1
DRSAIMVRCNQIFHISPIGF | 6.31 ± 0.064
DRVLRVDSLSAVAVNNLVVR | -0.178 ± 1.1
DRVLTPNKGGKPRTLPHRDS | 1.19 ± 0.37
DRVSVVIAGDQKPEFRRGKR | -0.469 ± 0.45
DSASVRVVIADEDLSAVVRA | 1.72 ± 0.27

Substance | amyloid nucleation score
DSCRGMVSFCG | -0.399 ± 0.35
DSFSSWYDFQFVWSVTVNRM | inactive
DSLLKVLRRIWCLYVGGNLI | -0.758 ± 0.37
DSLTQILTVSCVCYEESMRI | -0.613 ± 0.48
DSLYWSRCSSFRTKQEVSDM | 0.907 ± 0.3
DSQKLAGVVSIKVSVANVLS | 3.9 ± 0.11
DSSYG | 0.285 ± 0.74
DSVIGSLCPNCYGWRISKVM | 0.081 ± 1.1
DSVIRRNKNTSTL | -0.275 ± 0.25
DSVVLGGYGGFAAHKTRVIF | 0.213 ± 0.43
DSWLFGDINRCFWLVKCYHR | 2.69 ± 0.075
DTAHTNISECRAMVRMYRSR | -0.755 ± 1.1
DTIILC | inactive
DTLLSMAKRCLDSVFLGFPR | -0.134 ± 0.55
DTLVHMLRYFGGTQPWYM | -0.183 ± 0.53
DTMKFFSSLSMNGENVGLGY | inactive
DTSIW | 0.114 ± 0.29
DTWVLDIMYFSLRYWVFVSV | 0.228 ± 1
DVAYRVVDKRIQRVAKCMYM | -0.194 ± 0.6
DVFVDMGMLTPKRCRARRGV | 0.883 ± 0.34
DVIVRLFVPYLVV | -0.199 ± 0.44
DVKSAWRLGVGCLTVRAIRE | 0.233 ± 0.49
